From publication PMC7088233 come the findings set out here.

A word on the Kd: it is the constant that tells how readily two partners part at equilibrium. For orientation: koff means the rate constant with which the complex falls apart.

Assay [1] has as its target recombinant glycosylated HIV-1 IIIB gp120 (baculovirus) (HIV-1 IIIB) (UniProt P04578).
The target is the same in assay [2]. In words: SPR.

With “native KAA-1 lectin from Kappaphycus alvarezii (natural protein)”, in assay [1], the IC50 of neutralization of HIV-1 (derived from pNL4-3) in Jurkat cells is 0.0092 µM. Same read-out and setting: the same measure for “His-tagged recombinant KAA-1 (Kappaphycus alvarezii agglutinin 1) (natural protein)”: 0.0129 µM; for “native KAA-2 lectin from Kappaphycus alvarezii (natural protein)”: 0.0073 µM.

For the substance “recombinant KAA-1 after removal of the His tag by thrombin (natural protein)”, in assay [2], the Ka was 1.61e+09 M⁻¹, the Kd turned out to be 0.622 nM and the koff is 0.000529 s⁻¹.
